Patent US20220333124
Numbering of substitutions follows the chain as printed.

Columns and labels:
[1] = test system: T1, Pb2Cpf1 (Prevotella bryantii B14); experiment: cell_activity; conditions: pea protoplasts, NGS; PAM TTTC per claims
T1 sequence: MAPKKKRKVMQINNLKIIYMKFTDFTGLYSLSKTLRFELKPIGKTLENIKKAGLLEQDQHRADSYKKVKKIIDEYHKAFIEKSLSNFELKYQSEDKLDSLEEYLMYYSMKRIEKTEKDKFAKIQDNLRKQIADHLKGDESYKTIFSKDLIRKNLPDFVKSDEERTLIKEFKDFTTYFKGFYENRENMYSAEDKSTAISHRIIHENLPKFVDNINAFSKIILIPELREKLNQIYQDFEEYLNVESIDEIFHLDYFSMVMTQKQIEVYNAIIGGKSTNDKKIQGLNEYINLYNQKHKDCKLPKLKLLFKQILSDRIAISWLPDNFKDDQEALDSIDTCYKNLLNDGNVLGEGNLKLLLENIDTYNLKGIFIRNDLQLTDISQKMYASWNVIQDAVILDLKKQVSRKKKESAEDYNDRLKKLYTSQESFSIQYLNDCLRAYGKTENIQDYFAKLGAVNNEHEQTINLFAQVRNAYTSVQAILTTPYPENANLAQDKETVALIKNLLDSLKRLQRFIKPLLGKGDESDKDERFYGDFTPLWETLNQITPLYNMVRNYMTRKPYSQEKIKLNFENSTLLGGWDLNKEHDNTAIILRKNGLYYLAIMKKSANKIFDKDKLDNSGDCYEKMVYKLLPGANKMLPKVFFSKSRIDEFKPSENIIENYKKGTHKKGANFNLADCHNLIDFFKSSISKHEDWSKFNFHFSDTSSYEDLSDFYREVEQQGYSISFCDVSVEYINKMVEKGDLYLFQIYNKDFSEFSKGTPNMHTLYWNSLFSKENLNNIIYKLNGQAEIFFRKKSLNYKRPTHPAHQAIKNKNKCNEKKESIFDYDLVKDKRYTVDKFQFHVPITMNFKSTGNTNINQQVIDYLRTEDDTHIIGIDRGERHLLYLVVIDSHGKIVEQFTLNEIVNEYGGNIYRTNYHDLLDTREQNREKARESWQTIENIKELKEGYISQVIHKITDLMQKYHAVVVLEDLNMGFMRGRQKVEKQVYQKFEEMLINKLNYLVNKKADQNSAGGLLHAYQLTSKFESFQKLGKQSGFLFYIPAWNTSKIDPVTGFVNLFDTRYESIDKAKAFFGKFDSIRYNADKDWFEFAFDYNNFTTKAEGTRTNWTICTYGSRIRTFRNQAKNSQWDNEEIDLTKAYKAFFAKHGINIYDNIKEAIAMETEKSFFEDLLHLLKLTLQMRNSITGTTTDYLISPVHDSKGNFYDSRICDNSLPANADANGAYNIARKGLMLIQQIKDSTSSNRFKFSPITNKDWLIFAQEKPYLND

[2] = test system: T2, Pb2Cpf1 E173R (Prevotella bryantii B14); experiment: cell_activity; conditions: pea protoplasts, NGS; PAM TTTC per claims
T2 sequence: T1 sequence with E182R

For “PsLOX2 guide RNA (plasmid 133806, MtU6 promoter; plasmid sequence given) ; PsLOX2 genomic target”, the activity [1] was 0.32 % editing and the activity [2] was 0.88 % editing.
